Here are results for 30 sequences from the nanobody polyreactivity screen of Harvey et al. (2022).

The nature of the data set: yeast display, Sf9 membrane polyspecificity reagent, FACS + sequencing; frameworks hold sequencing errors. In outline: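 Galactose induction of a Saccharomyces cerevisiae BJ5465 synthetic nanobody display library ran 36–48 hours. The cells were then stained for 1 hour at 4 °C with 10% biotinylated, detergent-solubilized Sf9 membrane reagent, pulled down on streptavidin microbeads and FACS-sorted into low and high (top ~1%) gates on expression and reagent-binding fluorescence. Labels for polyreactivity follow the gate of origin.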
As for “QVQLVESGGGLVQAGGSLRLSCAASGSIFRGYAMGWYRQAPGKERELVAAITSSGGSTNYADSVKGRFTISRDNAKNTVYLQMNSLKPEDTAVYYCAKAPGLWHLIQRMDYWGQVTQVTVSS”, the “polyreactivity (PSR sort gate)” value is “low polyreactivity”.

With “QVQLVESGGGLVQAGGSLRLSCAASGSIFRGYAMGWYRQAPGKERELVAVIRRTSGSTYYADSVKGRFTISRDNAKNTVYLQMNSLKPEDTAVYYCNTLRHSSYPSYGYWGQGTQVTVSS”, the “polyreactivity (PSR sort gate)” value is “high polyreactivity”.

Consider “QVQLVESGGGLVQAGGSLRLSCAASGSIFRGYAMGWYRQAPGKERELVAVITKSGGRTYYADSVKGRFTISRDNAKNTVYLQMNRLKPEDTAVYYCAKQPGSAYDYWGQGTQVTVSS”, for which the “polyreactivity (PSR sort gate)” value is listed as “high polyreactivity”.

With “QVQLVESGGGLVQAGGSLRLSCAASGSIFRGYTMGWYRQAHGKERELVAAITSGDSTNYADSVKGRFTISRDNAKNTVYLQMKSLKPEDTAVYSCAAVTRFYTKYYWGQGTQVTVSS”, the “polyreactivity (PSR sort gate)” value is “high polyreactivity”.

As for “QVQLVESGGGLVQAGGSLRLSCAASGSIFRGYTMGWYRQAPGKERELVAAITSGDSTNYADSVKGRFTISRDNAKNTVYLQMNSLKPEDTAVYYCAAGRLYLPYLVYRTYSFVGYYYWGQGTQVTVSS”, the “polyreactivity (PSR sort gate)” value is given as “high polyreactivity”.

As for “QVQLVESGGGLVQAGGSLRLSCAASGSIFRGYTMGWYRQATGKERELVAAITSGDSTNYADSVKGRFTISRDNAKNTVYLQMNSLKPEDTAVYYCAAGRLYLPYLVYLTYSFVGYYYWGQGTQVTVSS”, the “polyreactivity (PSR sort gate)” value is recorded as “high polyreactivity”.

In the case of “QVQLVESGGGLVQAGGSLRLSCAASGSIFRGYVRGWYRQAPGKERELVAAITWSTGSTYYADSVKGRFTISRDNAKNTVYLQMNSLKPEDTAVYYCAAVRRWAANRYQSGVTGNYWGQGTKVTVSS”, the “polyreactivity (PSR sort gate)” value is “high polyreactivity”.

Consider “QVQLVESGGGLVQAGGSLRLSCAASGSIFRHNAMGWYRQAPGKERELVAAISRRASSTYYADSVKGRFTISRDNAKNTVYVQMNSLKPEDTAVYYCAVVPSSTYHAYDYWGQGTQVTVSS”, for which the “polyreactivity (PSR sort gate)” value is on record as “high polyreactivity”.

For the sequence “QVQLVESGGGLVQAGGSLRLSCAASGSIFRIKAMGWSRQAPGKERELVAAITGRVGSTYYADSVKGRFTISRDNAKNTVYLQMNSLKPEDTAVYYCAARAGSSRYTREYRYDYWGQGTQVTVSS”, the “polyreactivity (PSR sort gate)” value was “high polyreactivity”.

With “QVQLVESGGGLVQAGGSLRLSCAASGSIFRINAMGWYRPAPGKEREFVAAIRGSGGRTYYAESVKGRFTISRDNAKNTVYLQMNSLKPEDTAVYYCAADFSYRYFQRTSWPFDYWGQGTQVTVSS”, the “polyreactivity (PSR sort gate)” value is on record as “high polyreactivity”.

For the sequence “QVQLVESGGGLVQAGGSLRLSCAASGSIFRINAMGWYRQAPGKERELVAAISWSGGSTYYADSVKGRFTISRDNAKNTVYVQMNSLKPEDTAVYYCAAVVSKSSFDYWGQGTQVTVSS”, the “polyreactivity (PSR sort gate)” value was “low polyreactivity”.

Consider “QVQLVESGGGLVQAGGSLRLSCAASGSIFRIYAMGGYRQAPGKERELVAAITGRGGSTYYADSVKGRFTISRDNAKNTVYLQRNSLKPEDTAVYYCAAEERYAYRYDYWGQATQVTVSS”, for which the “polyreactivity (PSR sort gate)” value was “high polyreactivity”.

In the case of “QVQLVESGGGLVQAGGSLRLSCAASGSIFRIYAMGWYRQATGKETELVAAITWSGGSTYYADSVKGRFTISRDNAKNSVYLQMNSLKPEDTAVYYCAAVVIYWYQRVGYRSDYWGQGTQVTVSS”, the “polyreactivity (PSR sort gate)” value was “high polyreactivity”.

For the sequence “QVQLVESGGGLVQAGGSLRLSCAASGSIFRKNAMGRYRQAPGKERELVAAITGTGRTTYADSVKGRFTISRDNAKNTVYLQMNSLKPEDTAVYYCAADVNYYQHRLYYWGQGTQVTVSS”, the “polyreactivity (PSR sort gate)” value is on record as “low polyreactivity”.

Regarding “QVQLVESGGGLVQAGGSLRLSCAASGSIFRKNAMGWYRQAPGKERELVAAISSSGGRTYYADSVKGRFTISRDNAKNTVYLQMNSLKPEDTAVYYCNTGPGQSFRYNYWGQGTQVTVSS”, the “polyreactivity (PSR sort gate)” value is on record as “high polyreactivity”.

Turning to “QVQLVESGGGLVQAGGSLRLSCAASGSIFRLNAMGWYRQAPGKERELVAAISVSGTRTYYADSVKGRFTISRDNAKNIVYLQMNSLKPEDTAVYYCAARVYKGQGKGDYWGQGTQVTVSS”, the “polyreactivity (PSR sort gate)” value is “high polyreactivity”.

As for “QVQLVESGGGLVQAGGSLRLSCAASGSIFRLNTKGGYRQAPGKERELVAAISNGGRTYYADSVTGRFTISRDNAKNTVYLQMNSLKPEDTAVYYCNVRYGRSKIYGYWGQGTQVTVSS”, the “polyreactivity (PSR sort gate)” value is reported as “high polyreactivity”.

Consider “QVQLVESGGGLVQAGGSLRLSCAASGSIFRNNAMGWYRQAPGKERELVASITRRGGSTYYADSVKGRFTISRDNAKNTVYLQMNSLKPEDTAVYYCAATTQHRYKLNYWGQGTHVTVSS”, for which the “polyreactivity (PSR sort gate)” value is listed as “high polyreactivity”.

“QVQLVESGGGLVQAGGSLRLSCAASGSIFRNNAMGWYRQAPGKERELVAVINSRGGTTYYADSVKGRFTISRDNAMNPVYLQMNSLIPEDTAVYYCAARIRTSDRRYYWGQGTQVTVSS”: the “polyreactivity (PSR sort gate)” value is recorded as “high polyreactivity”.

“QVQLVESGGGLVQAGGSLRLSCAASGSIFRNYAMGRSRQAPGKERELVAAITSGVRTNYADSVKGRFTISRDNAKNTVYLQMNSLKPEDTAVYYCNKGYNAVWRYRGDYWGQGTHVTVSS”: the “polyreactivity (PSR sort gate)” value is on record as “high polyreactivity”.

As to “QVQLVESGGGLVQAGGSLRLSCAASGSIFRNYAMGWSRQAPGKERELVAAINWNGGSTYYADSVKGRFTISRDNAKNTVYLQMNSLKPEDTAVYYCAARSSKFVTSNRYDYWGQGTQVTVSS”, the “polyreactivity (PSR sort gate)” value was “high polyreactivity”.

In the case of “QVQLVESGGGLVQAGGSLRLSCAASGSIFRPNAMGWYRQAPGKERELVAAITFRGSRTYYADSVKGRFTISRDNAKNTVYLQMNSLKPEDTAVYYCNADYSSYWTSYDYWGQGTQVTVSS”, the “polyreactivity (PSR sort gate)” value is recorded as “high polyreactivity”.

Regarding “QVQLVESGGGLVQAGGSLRLSCAASGSIFRPNAMGWYRQAPGKERELVAAITWSGDSTYYADSVKGRFTLSRDNAKNTVYRQMNSLKPVDTAVYYCATDPDYVLYRTAYYEFDYWGQGTHVTVSS”, the “polyreactivity (PSR sort gate)” value is listed as “low polyreactivity”.

As for “QVQLVESGGGLVQAGGSLRLSCAASGSIFRPNTMGWYRQAPGKERELVAAIRAGGRTYYADSVKGRFTISRDNAKNTVYLQMNSLKPEDTAVYYCNAVPASASTWRGQVGYDYWGQGTQVTVSS”, the “polyreactivity (PSR sort gate)” value is reported as “high polyreactivity”.

Consider “QVQLVESGGGLVQAGGSLRLSCAASGSIFRPSAMGWYRQAPGKERELVAAIRWSTGNTYYADSVKGRFTISRDNAKNTVYLQMNSLKPEDTAVYYCAAAYWPVVWFYYWGQGTQVTVSS”, for which the “polyreactivity (PSR sort gate)” value is “low polyreactivity”.

Take “QVQLVESGGGLVQAGGSLRLSCAASGSIFRPYAMGWYRQAPGKERELVAAITSGGRTNYADSVKGRFTISRDNAKNTVYLQMNSLKPEDTAVYYCAKTGSYAKIRPNNDYWGQGTQVTVSS”: the “polyreactivity (PSR sort gate)” value is on record as “low polyreactivity”.

For “QVQLVESGGGLVQAGGSLRLSCAASGSIFRPYTMGWYRQAPGKEREFVAAITWSDGSTYYADSVKGRFTISRDNAKNTVYLQINSLKPLDTAVYDCAADLHDGYYYSFWYGYDYWGQGTQVTVSS”, the “polyreactivity (PSR sort gate)” value was “low polyreactivity”.

“QVQLVESGGGLVQAGGSLRLSCAASGSIFRQYAMGWYRQAPGKERELVAAITYSGGNTYYADSVKGRFTISRDNAKNTVYLQMNSLKPEDTAVYYCAADYGSRSWEYNYWGQGTQVTVSS”: the “polyreactivity (PSR sort gate)” value is reported as “low polyreactivity”.

Take “QVQLVESGGGLVQAGGSLRLSCAASGSIFRQYAMGWYRQAPGKERELVATISRSGGSTYYADSVKGRFTISRDNAKNTVYLQMNSLKPEDTAVYYCAASRYNKSYREWWVGSWGQGTQVTVSS”: the “polyreactivity (PSR sort gate)” value is “high polyreactivity”.

With “QVQLVESGGGLVQAGGSLRLSCAASGSIFRRNAMGWYRQAPAKERDLVAAISVRGGSTYYAYSVKGRFTISRDLAKNTVYLQMISLKPEDTAVYYCAADEFDDYDWYRGYDSTYDYWGQGTQVTVST”, the “polyreactivity (PSR sort gate)” value is listed as “low polyreactivity”.
